Drawing on article PMC12913940, this text covers fold intensity of the co-IP against the other three Atg8 family members for one substance.

The target in the assay is Crassostrea gigas GABARAPL2, Flag-tagged (Crassostrea gigas). Description: co-IP.

In turn, “Crassostrea gigas starch-binding domain-containing protein 1 (STBD1), HA-tagged (natural protein)” yielded a fold intensity of the co-IP against the other three Atg8 family members of 4.4 fold.
